Source: patent US20210130473A1 (SILVERBACK THERAPEUTICS, published 2021)

T1: rat ASGR1 on CHO-S cells (rat, UniProt P02706 1-284)
T1 construct: whole, on cells
T1 sequence (looked up): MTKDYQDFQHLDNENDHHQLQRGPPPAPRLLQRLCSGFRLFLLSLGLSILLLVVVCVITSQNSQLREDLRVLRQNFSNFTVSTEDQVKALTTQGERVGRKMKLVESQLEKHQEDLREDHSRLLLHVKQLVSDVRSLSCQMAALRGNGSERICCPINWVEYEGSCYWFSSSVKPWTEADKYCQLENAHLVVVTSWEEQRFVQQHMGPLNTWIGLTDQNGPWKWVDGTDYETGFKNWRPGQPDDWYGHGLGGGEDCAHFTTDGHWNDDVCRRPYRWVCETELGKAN

T2: rat CLEC10A (rat, UniProt P49301 59-306, limits assumed)
T2 construct: the assay is not described
T2 sequence (looked up): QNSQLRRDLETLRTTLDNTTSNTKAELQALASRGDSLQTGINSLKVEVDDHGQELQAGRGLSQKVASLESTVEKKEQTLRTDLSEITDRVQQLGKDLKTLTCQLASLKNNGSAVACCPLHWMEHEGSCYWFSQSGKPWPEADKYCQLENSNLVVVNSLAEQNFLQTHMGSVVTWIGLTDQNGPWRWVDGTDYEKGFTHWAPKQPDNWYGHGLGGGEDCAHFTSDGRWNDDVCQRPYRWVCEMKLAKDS

T3: human ASGR1 (asialoglycoprotein receptor 1) on cells (human, UniProt P07306 1-291)
T3 construct: whole, on cells; also called HepG2 cells; CHO-S cells transfected with human ASGR1 full length DNA
T3 sequence (looked up): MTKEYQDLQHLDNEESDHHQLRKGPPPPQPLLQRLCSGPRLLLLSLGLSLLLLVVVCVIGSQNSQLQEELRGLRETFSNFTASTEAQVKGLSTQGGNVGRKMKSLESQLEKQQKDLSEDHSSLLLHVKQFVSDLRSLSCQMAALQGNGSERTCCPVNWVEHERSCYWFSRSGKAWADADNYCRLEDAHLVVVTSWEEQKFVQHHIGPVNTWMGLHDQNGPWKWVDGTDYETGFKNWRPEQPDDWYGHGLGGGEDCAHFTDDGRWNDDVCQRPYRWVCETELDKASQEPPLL

T4: human Fc-fused human ASGR1 extracellular domain (human, UniProt P07306 62-291)
T4 construct: extracellular domain; also called human Fc-fused ASGR1 ECD; not shown: human Fc
T4 sequence (looked up): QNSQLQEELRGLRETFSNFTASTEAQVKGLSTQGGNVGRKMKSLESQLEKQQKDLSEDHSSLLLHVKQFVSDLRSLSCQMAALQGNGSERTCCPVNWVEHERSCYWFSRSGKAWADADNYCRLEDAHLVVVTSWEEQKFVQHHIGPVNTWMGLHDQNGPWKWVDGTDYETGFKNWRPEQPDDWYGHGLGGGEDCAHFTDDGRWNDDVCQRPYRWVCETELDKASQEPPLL

T5: His-tagged human ASGR1 extracellular domain (human, UniProt P07306 62-291)
T5 construct: extracellular domain; also called His-tagged human ASGR1 ECD; human ASGR1 ECD; not shown: His tag
T5 sequence (looked up): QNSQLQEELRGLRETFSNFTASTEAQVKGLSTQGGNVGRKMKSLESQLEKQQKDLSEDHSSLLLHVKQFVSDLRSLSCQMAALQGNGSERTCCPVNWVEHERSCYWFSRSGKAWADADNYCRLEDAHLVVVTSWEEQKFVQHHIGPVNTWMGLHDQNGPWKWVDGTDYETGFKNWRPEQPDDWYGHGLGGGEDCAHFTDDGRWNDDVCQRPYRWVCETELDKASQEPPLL


Assays:
rat ASGR1 on CHO-S cells [1] = target: T1, rat ASGR1 on CHO-S cells; assay: Guava flow cytometry on CHO-S cells expressing rat ASGR1
Description: (§1) Anti-human ASGR1 antibodies of this disclosure were examined for cross-reactivity with Cynomolgus macaque and rat ASGR1. Briefly, sequence encoding Cynomolgus macaque or rat ASGR1 was transiently transfected into CHO-S cells. Transfected cells were before performing cell binding assay. A total of about 1.5×10⁴ transfected cells/well were added to 96-well V-bottom assay plate, incubated at 37° C., 5% CO2 for 48-72 hours, and then washed with culture medium before adding 100 μl of each ASGR1 antibody at different concentrations starting from 100 nM and 3-fold dilutions to a total of eight wells. The cells with antibody were incubated for 40 minutes at 4° C., then washed three times with 200 μl of fresh culture medium. To each well was added 50 μl PE conjugated goat anti-human Fc (SouthemBiotech) at 1:200 dilution in culture medium and then incubated at 4° C. for 20 minutes. After washing the plate once, the treated cells were resuspended in 200 μl culture medium and then the stained cells were analyzed on GUAVA® using Incyte software.

rat CLEC10A = target: T2, rat CLEC10A; assay: not described
[2] = target: T6, Cynomolgus macaque ASGR1 on CHO-S cells (Cynomolgus macaque); assay: Guava flow cytometry on CHO-S cells expressing cynomolgus ASGR1 (repeat of Table 15)
T6 construct: whole, on cells; also called Cynomologous ASGR1
Description: as §1

[3] = target: T6, Cynomolgus macaque ASGR1 on CHO-S cells; assay: Guava flow cytometry on CHO-S cells expressing cynomolgus ASGR1
Description: as §1

rat ASGR1 on CHO-S cells [4] = target: T1, rat ASGR1 on CHO-S cells; assay: Guava flow cytometry on CHO-S cells expressing rat ASGR1 (repeat of Table 16)
Description: as §1, with “Briefly,” for “Anti-human ASGR1 antibodies of this disclosure were examined for cross-reactivity with Cynomolgus macaque and rat ASGR1. Briefly,”, “(SouthernBiotech)” for “(SouthemBiotech)”
as §1

[5] = target: T3, human ASGR1 (asialoglycoprotein …); assay: flow cytometry on HepG2 cells, anti-human IgG PE secondary, MFI (Geo Mean)
Description: Briefly, 5×10⁴ HepG2 cells/well were contacted with titrating concentrations of anti-ASGR1 antibodies in FACS Buffer (FB: PBS+2% FBS+1 mM CaCl₂)) for 30 minutes at 4° C. Cells were washed twice in FB, then incubated in anti-human IgG PE secondary for 30 minutes at 4° C. Cells were washed twice in FB, then analyzed by flow cytometry.

rat ASGR1 on CHO-S cells [6] = target: T1, rat ASGR1 on CHO-S cells; assay: Guava flow cytometry on CHO-S cells expressing rat ASGR1; remark: listed apart in the source
[7] = target: T4, human Fc-fused human ASGR1 …; assay: Octet binning, hFc-ASGR1 ECD on AHC sensors; competitor: ASGR1 mAb-A
Description: The interactions of the anti-ASGR1 antibodies of this disclosure and control mAbs with human ASGR1 ECD were analyzed using the OCTET® Data Analysis Software 9.0 (ForteBio).

[8] = target: T5, His-tagged human ASGR1 extracellular …; assay: Octet, His-tagged ASGR1 ECD on Penta-His sensors; N = association not sensitive to Ca2+ (binds also without calcium)
Description: Analysis of ASGR1 antibody binding to human ASGR1 ECD was performed using the OCTET® Red 96 instrument and analyzed using the OCTET®Data Analysis Software 9.0 (ForteBio). His-tagged human ASGR1 ECD was immobilized to OCTET® Penta-His biosensors and ASGR1 antibodies were subjected to avidity binding under the conditions described above. Association with the ASGR1 ECD was measured by the rate of and increase in magnitude of signal response at a given antibody concentration. Dissociation from the ASGR1 ECD was measured the rate of loss in signal upon removal of the antibody and further incubation with or without Ca²⁺.

Row | Binder | EC50 (rat ASGR1 on CHO-S cells [1]) [pM] | binding result (rat CLEC10A) | EC50 [2] [pM] | EC50 [3] [pM] | EC50 (rat ASGR1 on CHO-S cells [4]) [pM] | EC50 (read off the curve) [5] [µg/mL] | binding result [7] | binding result [5] | binding result [8] | binding result (rat ASGR1 on CHO-S cells [6])
1 | G2D (antibody, V domains shown, parental mouse hybridoma antibody; also called mAb G2D) VH: EVQLQQSGPELVKPGASVKISCKASGYSFTGYYMHWVKQSHVKSLEWIGRINPNNGATNYNQNFKDKASLTVDKSSSTAYMEFHSLTSEDSAVYYCTSVNFYYWGQGTTLTVSS VL: DIKMTQSPSSMYASLGERVTITCKASQVINSYLSWFQQKPGKSPETLIYRANTLVDGVPSRFSGSGSGQDYSLTISSLEYEDLGIYYCLQYAEFPYTFGGGTKLEIK | 370 | no binding | 470 | 470 | 370 | ~0.2 | – | – | – | –
2 | K2E (antibody, V domains shown, parental mouse hybridoma antibody; also called mAb K2E) VH: QVQLQQSAAELARPGASVKMSCKASGYTFTSYTMHWVKQRPGQGLEWIGYISPSSGYTEYNQKFKDKTTLTADKSSSTAYMQLSSLTSEDSAVYYCARKFDYWGQGTTLTVSS VL: DIKMTQSPSSMYASLGERVTITCKASQDINSYLSWFQQKPGKSPKTLIYRANRLVDGVPSRFSGSGSGQDFSLTISSLEYEDMGIYYCLQYDEFPFTFGSGTKLEIK | 520 | – | 680 | 680 | 520 | ~0.3 | – | – | – | –
3 | H8K (antibody, V domains shown, parental mouse hybridoma antibody; also called mAb H8K) VH: DVQLQESGPGLVKPSQSLSLTCTVTGFSITSDYAWNWIRQFPGNQLEWMGYRSYRGSTSYNPSLKSRISITRDTSKNQFFLQLNSVTTEDTATYYCARRGYYGSSSHWYFDVWGAGTTVTVSS VL: DIQMTQSPASLSASVGETVTITCRASENIYSYLAWYQQKQGKSPQLLVYNAKTLAEGVPSRFSGSGSGTQFSLKINSLQPEDFGSYYCQHHYGTPLTFGSGTKLELK | – | – | – | – | – | – | binds | binds | – | –
4 | J4F (antibody, V domains shown, parental mouse hybridoma antibody; also called mAb J4F) VH: QVQLQQSGDDLVKPGASVKLSCKASGYTFTSYWINWIKQRPGQGLEWIGRIVPGSGSTYYNEMFKDKATLTVDTSSSTAYIQLSSLSSEDSAVYFCARKPNFDVWGAGTTVTVSS VL: DIVMTQSQKFMSTSVGDRVSVTCKASQNVGTNVAWYQQKPGQSPKAVIYSASYRFSGVPDRLTGSGSGTDFTLTITNVQSEDLAEYFCQQYNSYPLTFGAGTKLELK | 620 | – | 670 | 670 | 620 | ~0.3 | – | – | – | –

Further lines, with some results ahead:

Row | EC50 (rat ASGR1 on CHO-S cells [1]) [pM] | binding result (rat CLEC10A) | EC50 [2] [pM] | EC50 [3] [pM] | EC50 (rat ASGR1 on CHO-S cells [4]) [pM] | EC50 (read off the curve) [5] [µg/mL] | binding result [7] | binding result [5] | binding result [8] | Binder | binding result (rat ASGR1 on CHO-S cells [6])
5 | – | – | 660 | 660 | – | – | – | – | – | hzH8K-1 (antibody, IgG1, V domains shown, IgG1, kappa) VH: QVQLQESGPGLVKPSQTLSLTCTVSGGSISSDYAWNWIRQHPGKGLEWIGYRSYRGSTSYNPSLKSRVTISVDTSKNQFSLKLSSVTAADTAVYYCARRGYYGSSSHWYFDVWGQGTTVTVSS VL: DIQMTQSPSSLSASVGDRVTITCRASENIYSYLAWYQQKPGKAPKLLIYNAKTLAEGVPSRFSGSGSGTDFTLTISSLQPEDFATYYCQHHYGTPLTFGGGTKVEIK | no binding (tested: 100 nM highest concentration)
6 | – | – | 390 | 390 | – | – | – | – | binds | hzL4L-7 (antibody, IgG1, V domains shown, IgG1, kappa) VH: QVQLQESGPGLVKPSQTLSLTCTVSGYSISSDYAWNWIRQHPGKGLEWIGYISYSGSTRYNPSLKSRVTITRDTSKNQFSLKLSSVTAADTAVYYCARRYRYDEGYGMDYWGQGTTVTVSS VL: DIQMTQSPSSLSASVGDRVTITCRASENIYSNLAWYQQKPGKAPKLLIYAATNLADGVPSRFSGSGSGTDFTLTISSLQPEDFATYYCQHFWGTPPWTFGGGTKVEIK | no binding (tested: 100 nM highest concentration)
7 | – | – | – | – | – | – | binds | binds | – | L4L (antibody, V domains shown, parental mouse hybridoma antibody; also called mAb L4L) VH: DVQLQESGPGLVKPSQSLSLTCTVTGYSITSDYAWNWIRQFPGNKLEWMGYISYSGSTRYNPSLKSRISITRDTSKNQFFLQLNSVTTEDTATYYCARRYRYDEGYGMDYWGQGTSVTVSS VL: DIQMTQSPASLSVFVGEIVTITCRASENIYSNLAWYQQKQGKSPQLLVYAATNLADGVPSRFTGSGSGTQFSLKINSLQSEDFGNYYCQHFWGTPPWTFGGGTKLEIK | –
